The record followed here is the supplement of paper PMC9112550, “Optimization of the antimicrobial peptide Bac7 by deep mutational scanning” (BMC Biology, 2022).

This data set relates to Escherichia coli TOP10. Briefly: shrunken log2 fold change of peptide-encoding DNA abundance (4.5 h post-induction vs induction); higher = less antimicrobial activity (less host growth inhibition). Particulars: time post-induction: 4.5 h; library: site-saturation at positions 5, 18, 19, 20.
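Also: peptides expressed intracellularly from a pBAD plasmid library in pooled LB shake-flask culture, induced with 0.3% L-arabinose, DNA abundance read by NGS, three biological replicates, DESeq2 with apeglm shrinkage.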

Turning to RRIRPRPPRLPRPRPRPPQIPRP, the “shrunken log2 fold change” value came to 0.138.

For RRIRLRPPRLPRPRPRPPNMPRP, the “shrunken log2 fold change” value is -0.076.

Take RRIRYRPPRLPRPRPRPTLNPRP: the “shrunken log2 fold change” value was -0.54.

In the case of RRIRVRPPRLPRPRPRPCSTPRP, the “shrunken log2 fold change” value is -0.127.

Take RRIRSRPPRLPRPRPRPDNHPRP: the “shrunken log2 fold change” value was -0.307.

Consider RRIRERPPRLPRPRPRPCRQPRP, for which the “shrunken log2 fold change” value was -0.157.

In the case of RRIRHRPPRLPRPRPRPGFAPRP, the “shrunken log2 fold change” value stood at 0.142.

Consider RRIRQRPPRLPRPRPRPQDTPRP, for which the “shrunken log2 fold change” value is -0.555.

In the case of RRIRRRPPRLPRPRPRPHIDPRP, the “shrunken log2 fold change” value is -0.43.

As to RRIRFRPPRLPRPRPRPEIRPRP, the “shrunken log2 fold change” value is 0.0106.

As for RRIRGRPPRLPRPRPRPADLPRP, the “shrunken log2 fold change” value is 0.604.

In the case of RRIRCRPPRLPRPRPRPFLTPRP, the “shrunken log2 fold change” value was -0.565.

As to RRIRDRPPRLPRPRPRPDQFPRP, the “shrunken log2 fold change” value was -0.00947.

As to RRIRKRPPRLPRPRPRPAIRPRP, the “shrunken log2 fold change” value was -0.29.

In the case of RRIRCRPPRLPRPRPRPEWGPRP, the “shrunken log2 fold change” value stood at 0.163.

As to RRIRGRPPRLPRPRPRPSGLPRP, the “shrunken log2 fold change” value was found to be 0.3.

As to RRIRRRPPRLPRPRPRPWLTPRP, the “shrunken log2 fold change” value is -0.245.

As for RRIRSRPPRLPRPRPRPLHQPRP, the “shrunken log2 fold change” value was -0.248.

Regarding RRIRDRPPRLPRPRPRPQLIPRP, the “shrunken log2 fold change” value was 0.0732.

With RRIRKRPPRLPRPRPRPKEAPRP, the “shrunken log2 fold change” value is 0.334.

As to RRIRDRPPRLPRPRPRPELSPRP, the “shrunken log2 fold change” value turned out to be 1.55.

With RRIRVRPPRLPRPRPRPQLCPRP, the “shrunken log2 fold change” value is -0.143.

For RRIRIRPPRLPRPRPRPFKIPRP, the “shrunken log2 fold change” value is -0.144.

For RRIRCRPPRLPRPRPRPLQIPRP, the “shrunken log2 fold change” value is -0.213.

As for RRIRARPPRLPRPRPRPFRYPRP, the “shrunken log2 fold change” value was -0.283.

Turning to RRIRWRPPRLPRPRPRPVCLPRP, the “shrunken log2 fold change” value was found to be 0.311.

Consider RRIRWRPPRLPRPRPRPSATPRP, for which the “shrunken log2 fold change” value was 0.985.

As for RRIRQRPPRLPRPRPRPDGVPRP, the “shrunken log2 fold change” value was -0.119.

In the case of RRIRCRPPRLPRPRPRPVFTPRP, the “shrunken log2 fold change” value was -0.211.

Turning to RRIRSRPPRLPRPRPRPSCIPRP, the “shrunken log2 fold change” value was -0.223.

Take RRIRKRPPRLPRPRPRPGHAPRP: the “shrunken log2 fold change” value was 0.667.

Take RRIRSRPPRLPRPRPRPMGYPRP: the “shrunken log2 fold change” value was -0.0075.

With RRIRFRPPRLPRPRPRPHRDPRP, the “shrunken log2 fold change” value was -0.36.

Turning to RRIRVRPPRLPRPRPRPNRLPRP, the “shrunken log2 fold change” value came out at 0.0105.

Take RRIRWRPPRLPRPRPRPIPPPRP: the “shrunken log2 fold change” value came to 0.101.

Regarding RRIRNRPPRLPRPRPRPFPFPRP, the “shrunken log2 fold change” value was -0.22.

As for RRIRSRPPRLPRPRPRPEDGPRP, the “shrunken log2 fold change” value is 0.0117.

With RRIRCRPPRLPRPRPRPRMYPRP, the “shrunken log2 fold change” value was -0.562.

Take RRIRMRPPRLPRPRPRPTEKPRP: the “shrunken log2 fold change” value is 1.36.

Turning to RRIRMRPPRLPRPRPRPSPFPRP, the “shrunken log2 fold change” value came out at 0.124.

As to RRIRERPPRLPRPRPRPAVYPRP, the “shrunken log2 fold change” value is -0.221.

As to RRIRARPPRLPRPRPRPNSGPRP, the “shrunken log2 fold change” value is -0.0211.

As to RRIRPRPPRLPRPRPRPYTKPRP, the “shrunken log2 fold change” value is -0.0218.

Consider RRIRMRPPRLPRPRPRPRGFPRP, for which the “shrunken log2 fold change” value came to 0.045.

For the sequence RRIRKRPPRLPRPRPRPQPAPRP, the “shrunken log2 fold change” value came to 0.783.

In the case of RRIRCRPPRLPRPRPRPDGGPRP, the “shrunken log2 fold change” value is 0.196.

For RRIRQRPPRLPRPRPRPTFGPRP, the “shrunken log2 fold change” value amounted to 0.343.

On to RRIRRRPPRLPRPRPRPPWSPRP, for which the “shrunken log2 fold change” value was 0.421.

On to RRIRVRPPRLPRPRPRPWIMPRP, for which the “shrunken log2 fold change” value is -0.0202.

As for RRIRWRPPRLPRPRPRPLCIPRP, the “shrunken log2 fold change” value was -0.275.

As to RRIRKRPPRLPRPRPRPKVRPRP, the “shrunken log2 fold change” value worked out at 0.131.

RRIRMRPPRLPRPRPRPNDDPRP: the “shrunken log2 fold change” value was 0.196.

Consider RRIRARPPRLPRPRPRPQVMPRP, for which the “shrunken log2 fold change” value was -0.00224.

On to RRIRRRPPRLPRPRPRPDMRPRP, for which the “shrunken log2 fold change” value turned out to be 0.415.

Take RRIRMRPPRLPRPRPRPPDTPRP: the “shrunken log2 fold change” value was determined as 1.84.

Consider RRIRGRPPRLPRPRPRPSRKPRP, for which the “shrunken log2 fold change” value was 0.293.

With RRIRARPPRLPRPRPRPEQKPRP, the “shrunken log2 fold change” value stood at 1.29.

Take RRIRFRPPRLPRPRPRPDFNPRP: the “shrunken log2 fold change” value was -0.637.

As to RRIRCRPPRLPRPRPRPDNWPRP, the “shrunken log2 fold change” value turned out to be 0.409.

Turning to RRIRKRPPRLPRPRPRPGNMPRP, the “shrunken log2 fold change” value is 0.257.

On to RRIRDRPPRLPRPRPRPRSTPRP, for which the “shrunken log2 fold change” value is -0.00371.

As to RRIRVRPPRLPRPRPRPESPPRP, the “shrunken log2 fold change” value turned out to be 0.232.

RRIRSRPPRLPRPRPRPMLRPRP: the “shrunken log2 fold change” value was 0.123.

As for RRIRCRPPRLPRPRPRPEEPPRP, the “shrunken log2 fold change” value was 0.847.

For RRIRDRPPRLPRPRPRPIIHPRP, the “shrunken log2 fold change” value is -0.483.

Consider RRIRHRPPRLPRPRPRPDLQPRP, for which the “shrunken log2 fold change” value was -0.15.

For the sequence RRIRWRPPRLPRPRPRPSACPRP, the “shrunken log2 fold change” value is 0.382.

For the sequence RRIRDRPPRLPRPRPRPHMRPRP, the “shrunken log2 fold change” value stood at 0.00207.

For RRIRMRPPRLPRPRPRPASSPRP, the “shrunken log2 fold change” value is -0.00458.

RRIRARPPRLPRPRPRPWSPPRP: the “shrunken log2 fold change” value amounted to 0.138.

For RRIRKRPPRLPRPRPRPHPTPRP, the “shrunken log2 fold change” value turned out to be 0.431.

RRIRTRPPRLPRPRPRPTEMPRP: the “shrunken log2 fold change” value stood at 0.3.

Regarding RRIRNRPPRLPRPRPRPVNTPRP, the “shrunken log2 fold change” value was -0.0908.

For the sequence RRIRRRPPRLPRPRPRPKFFPRP, the “shrunken log2 fold change” value was -0.00723.

As for RRIRIRPPRLPRPRPRPAYVPRP, the “shrunken log2 fold change” value is -0.354.

Regarding RRIRLRPPRLPRPRPRPMYHPRP, the “shrunken log2 fold change” value is -0.493.

On to RRIRIRPPRLPRPRPRPEIAPRP, for which the “shrunken log2 fold change” value was -0.141.

Take RRIRYRPPRLPRPRPRPRANPRP: the “shrunken log2 fold change” value is -0.109.

RRIRHRPPRLPRPRPRPCLHPRP: the “shrunken log2 fold change” value is -0.0114.

As to RRIRNRPPRLPRPRPRPGSLPRP, the “shrunken log2 fold change” value was -0.0901.

With RRIRSRPPRLPRPRPRPVRAPRP, the “shrunken log2 fold change” value is 0.655.

Turning to RRIRWRPPRLPRPRPRPKTSPRP, the “shrunken log2 fold change” value stood at 0.104.

RRIRKRPPRLPRPRPRPKAIPRP: the “shrunken log2 fold change” value was found to be 0.0275.

As to RRIRWRPPRLPRPRPRPGIPPRP, the “shrunken log2 fold change” value was 0.11.

For the sequence RRIRKRPPRLPRPRPRPPEVPRP, the “shrunken log2 fold change” value turned out to be 0.741.

For RRIRTRPPRLPRPRPRPFICPRP, the “shrunken log2 fold change” value was -0.292.

In the case of RRIRHRPPRLPRPRPRPQWFPRP, the “shrunken log2 fold change” value is -0.0606.

Regarding RRIRGRPPRLPRPRPRPLVWPRP, the “shrunken log2 fold change” value was found to be 0.952.

RRIRSRPPRLPRPRPRPQPEPRP: the “shrunken log2 fold change” value is -0.279.

Turning to RRIRSRPPRLPRPRPRPKGGPRP, the “shrunken log2 fold change” value came to 0.149.

Consider RRIRRRPPRLPRPRPRPPPSPRP, for which the “shrunken log2 fold change” value amounted to 1.21.

For RRIRQRPPRLPRPRPRPLCMPRP, the “shrunken log2 fold change” value is -0.37.

With RRIRDRPPRLPRPRPRPYCGPRP, the “shrunken log2 fold change” value is 0.0637.

For RRIRIRPPRLPRPRPRPLYSPRP, the “shrunken log2 fold change” value is -0.674.

Regarding RRIRNRPPRLPRPRPRPFFWPRP, the “shrunken log2 fold change” value turned out to be 0.0463.

As for RRIRHRPPRLPRPRPRPDLDPRP, the “shrunken log2 fold change” value is -0.0331.

Consider RRIRNRPPRLPRPRPRPQIVPRP, for which the “shrunken log2 fold change” value is -0.0891.

With RRIRVRPPRLPRPRPRPSWCPRP, the “shrunken log2 fold change” value turned out to be 0.123.

RRIRHRPPRLPRPRPRPGALPRP: the “shrunken log2 fold change” value is -0.00348.

Take RRIRNRPPRLPRPRPRPLHHPRP: the “shrunken log2 fold change” value is -0.39.

For RRIRIRPPRLPRPRPRPFIVPRP, the “shrunken log2 fold change” value was -0.105.

As to RRIRYRPPRLPRPRPRPPKMPRP, the “shrunken log2 fold change” value turned out to be 0.28.

Regarding RRIRGRPPRLPRPRPRPVIKPRP, the “shrunken log2 fold change” value worked out at 0.0737.

On to RRIRIRPPRLPRPRPRPVSKPRP, for which the “shrunken log2 fold change” value is -0.0544.

Consider RRIRTRPPRLPRPRPRPSVMPRP, for which the “shrunken log2 fold change” value was -0.372.

As to RRIRVRPPRLPRPRPRPWSRPRP, the “shrunken log2 fold change” value is -0.273.

As for RRIRIRPPRLPRPRPRPVRVPRP, the “shrunken log2 fold change” value turned out to be 0.458.

As for RRIRGRPPRLPRPRPRPAFSPRP, the “shrunken log2 fold change” value was 0.0169.

For RRIRRRPPRLPRPRPRPTAKPRP, the “shrunken log2 fold change” value is 0.371.

Turning to RRIRHRPPRLPRPRPRPERKPRP, the “shrunken log2 fold change” value amounted to 0.0547.

As for RRIRQRPPRLPRPRPRPLAPPRP, the “shrunken log2 fold change” value turned out to be 0.38.

Turning to RRIRIRPPRLPRPRPRPWKQPRP, the “shrunken log2 fold change” value was -0.00674.

As to RRIRYRPPRLPRPRPRPPDRPRP, the “shrunken log2 fold change” value stood at 0.118.

RRIRLRPPRLPRPRPRPLKEPRP: the “shrunken log2 fold change” value amounted to 0.00325.

Turning to RRIRTRPPRLPRPRPRPMMRPRP, the “shrunken log2 fold change” value was determined as 0.933.

Regarding RRIRKRPPRLPRPRPRPQHWPRP, the “shrunken log2 fold change” value is 0.474.

Consider RRIRDRPPRLPRPRPRPGHHPRP, for which the “shrunken log2 fold change” value came out at 0.0913.

With RRIRARPPRLPRPRPRPKQNPRP, the “shrunken log2 fold change” value was determined as 0.481.

As to RRIRVRPPRLPRPRPRPYVFPRP, the “shrunken log2 fold change” value was -0.136.

Consider RRIRIRPPRLPRPRPRPRQTPRP, for which the “shrunken log2 fold change” value is -0.0527.

For RRIRVRPPRLPRPRPRPCYSPRP, the “shrunken log2 fold change” value amounted to 0.00378.

Consider RRIRDRPPRLPRPRPRPAIGPRP, for which the “shrunken log2 fold change” value turned out to be 0.325.

RRIRCRPPRLPRPRPRPREWPRP: the “shrunken log2 fold change” value is -0.0656.

As for RRIRTRPPRLPRPRPRPDCKPRP, the “shrunken log2 fold change” value was -0.126.

Turning to RRIRNRPPRLPRPRPRPQRFPRP, the “shrunken log2 fold change” value was -0.155.
